From the supplement of paper PMC5998384 come the findings set out here.

In data set [1] the test system is HeLa Kyoto. Description: solubility change mitosis vs G1/S (difference of NP-40 vs SDS log2 ratios) (log2 ratio difference); higher = more soluble in mitosis.
For data set [2], the system named is HeLa Kyoto. In words: solubility in G1/S (NP-40 vs SDS abundance) (log2 ratio); higher = more soluble. The conditions noted are these: cell cycle stage: G1/S.
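Throughout, for solubility change mitosis vs G1/S (difference of NP-40 vs SDS log2 ratios): synchronized HeLa Kyoto cells (double thymidine block for G1/S, nocodazole release for mitosis), protein amounts in NP-40 versus SDS lysates quantified by mass spectrometry, three biological replicates.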
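Throughout, for solubility in G1/S (NP-40 vs SDS abundance): HeLa Kyoto cells arrested at G1/S by double thymidine block, proteins quantified by TMT10plex mass spectrometry in mild NP-40 versus SDS extracts, three biological replicates.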

For the sequence “MIKCLSVEVQAKLRSGLAISSLGQCVEELALNSIDAEAKCVAVRVNMETFQVQVIDNGFGMGSDDVEKVGNRYFTSKCHSVQDLENPRFYGFRGEALANIADMASAVEISSKKNRTMKTFVKLFQSGKALKACEADVTRASAGTTVTVYNLFYQLPVRRKCMDPRLEFEKVRQRIEALSLMHPSISFSLRNDVSGSMVLQLPKTKDVCSRFCQIYGLGKSQKLREISFKYKEFELSGYISSEAHYNKNMQFLFVNKRLVLRTKLHKLIDFLLRKESIICKPKNGPTSRQMNSSLRHRSTPELYGIYVINVQCQFCEYDVCMEPAKTLIEFQNWDTLLFCIQEGVKMFLKQEKLFVELSGEDIKEFSEDNGFSLFDATLQKRVTSDERSNFQEACNNILDSYEMFNLQSKAVKRKTTAENVNTQSSRDSEATRKNTNDAFLYIYESGGPGHSKMTEPSLQNKDSSCSESKMLEQETIVASEAGENEKHKKSFLEHSSLENPCGTSLEMFLSPFQTPCHFEESGQDLEIWKESTTVNGMAANILKNNRIQNQPKRFKDATEVGCQPLPFATTLWGVHSAQTEKEKKKESSNCGRRNVFSYGRVKLCSTGFITHVVQNEKTKSTETEHSFKNYVRPGPTRAQETFGNRTRHSVETPDIKDLASTLSKESGQLPNKKNCRTNISYGLENEPTATYTMFSAFQEGSKKSQTDCILSDTSPSFPWYRHVSNDSRKTDKLIGFSKPIVRKKLSLSSQLGSLEKFKRQYGKVENPLDTEVEESNGVTTNLSLQVEPDILLKDKNRLENSDVCKITTMEHSDSDSSCQPASHILNSEKFPFSKDEDCLEQQMPSLRESPMTLKELSLFNRKPLDLEKSSESLASKLSRLKGSERETQTMGMMSRFNELPNSDSSRKDSKLCSVLTQDFCMLFNNKHEKTENGVIPTSDSATQDNSFNKNSKTHSNSNTTENCVISETPLVLPYNNSKVTGKDSDVLIRASEQQIGSLDSPSGMLMNPVEDATGDQNGICFQSEESKARACSETEESNTCCSDWQRHFDVALGRMVYVNKMTGLSTFIAPTEDIQAACTKDLTTVAVDVVLENGSQYRCQPFRSDLVLPFLPRARAERTVMRQDNRDTVDDTVSSESLQSLFSEWDNPVFARYPEVAVDVSSGQAESLAVKIHNILYPYRFTKGMIHSMQVLQQVDNKFIACLMSTKTEENGEAGGNLLVLVDQHAAHERIRLEQLIIDSYEKQQAQGSGRKKLLSSTLIPPLEITVTEEQRRLLWCYHKNLEDLGLEFVFPDTSDSLVLVGKVPLCFVEREANELRRGRSTVTKSIVEEFIREQLELLQTTGGIQGTLPLTVQKVLASQACHGAIKFNDGLSLQESCRLIEALSSCQLPFQCAHGRPSMLPLADIDHLEQEKQIKPNLTKLRKMAQAWRLFGKAECDTRQSLQQSMPPCEPP [MLH3]”, the “solubility change mitosis (log2)” value in the data set on HeLa Kyoto [1] worked out at 0.153. For the same sequence, the “solubility in G1/S (log2)” value with HeLa Kyoto [2] is -0.402.

As to “MAELNTHVNVKEKIYAVRSVVPNKSNNEIVLVLQQFDFNVDKAVQAFVDGSAIQVLKEWNMTGKKKNNKRKRSKSKQHQGNKDAKDKVERPEAGPLQPQPPQIQNGPMNGCEKDSSSTDSANEKPALIPREKKISILEEPSKALRGVTEGNRLLQQKLSLDGNPKPIHGTTERSDGLQWSAEQPCNPSKPKAKTSPVKSNTPAAHLEIKPDELAKKRGPNIEKSVKDLQRCTVSLTRYRVMIKEEVDSSVKKIKAAFAELHNCIIDKEVSLMAEMDKVKEEAMEILTARQKKAEELKRLTDLASQMAEMQLAELRAEIKHFVSERKYDEELGKAARFSCDIEQLKAQIMLCGEITHPKNNYSSRTPCSSLLPLLNAHAATSGKQSNFSRKSSTHNKPSEGKAANPKMVSSLPSTADPSHQTMPANKQNGSSNQRRRFNPQYHNNRLNGPAKSQGSGNEAEPLGKGNSRHEHRRQPHNGFRPKNKGGAKNQEASLGMKTPEAPAHSEKPRRRQHAADTSEARPFRGSVGRVSQCNLCPTRIEVSTDAAVLSVPAVTLVA [SPATS2L]”, in the data set on HeLa Kyoto [1], the “solubility change mitosis (log2)” value amounted to 1.14. In addition, the “solubility in G1/S (log2)” value in the data set with HeLa Kyoto [2] is -1.29.

For “MAMASPAIGQRPYPLLLDPEPPRYLQSLSGPELPPPPPDRSSRLCVPAPLSTAPGAREGRSARRAARGNLEPPPRASRPARPLRPGLQQRLRRRPGAPRPRDVRSIFEQPQDPRVPAERGEGHCFAELVLPGGPGWCDLCGREVLRQALRCTNCKFTCHPECRSLIQLDCSQQEGLSRDRPSPESTLTVTFSQNVCKPVEETQRPPTLQEIKQKIDSYNTREKNCLGMKLSEDGTYTGFIKVHLKLRRPVTVPAGIRPQSIYDAIKEVNLAATTDKRTSFYLPLDAIKQLHISSTTTVSEVIQGLLKKFMVVDNPQKFALFKRIHKDGQVLFQKLSIADRPLYLRLLAGPDTEVLSFVLKENETGEVEWDAFSIPELQNFLTILEKEEQDKIQQVQKKYDKFRQKLEEALRESQGKPG [RASSF5]”, the “solubility change mitosis (log2)” value in the data set with HeLa Kyoto [1] is -0.108. Moreover, the “solubility in G1/S (log2)” value with HeLa Kyoto [2] worked out at 0.328.
